From patent publication US20140087995A1 (published 2014)
Values belong to the binder of their own block, whether it stands above or below them. Numbered stars: 1 amine (or outer) side, 2 acyl side, 3 side chain; on linkers, the order of the positions; unused ones are H or OH. Bridge positions count the residues as written; N and C are the ends. Side chains are listed from the residue outwards. Ends that are not written are not given here. * marks the point of attachment. C20 diacid = O=C(O)CCCCCCCCCCCCCCCCCCC(=O)*; γGlu = O=C(O)[C@H](CCC(=O)[*:2])N[*:1]

Columns and labels:
[1] = target: T1, human amylin receptor (amylin 3(a) receptor: human calcitonin receptor plus RAMP-3) (human, UniProt P30988 25-474; O60896 24-148, limits assumed); assay: cell-based or functional assay
T1 sequence (looked up) 1: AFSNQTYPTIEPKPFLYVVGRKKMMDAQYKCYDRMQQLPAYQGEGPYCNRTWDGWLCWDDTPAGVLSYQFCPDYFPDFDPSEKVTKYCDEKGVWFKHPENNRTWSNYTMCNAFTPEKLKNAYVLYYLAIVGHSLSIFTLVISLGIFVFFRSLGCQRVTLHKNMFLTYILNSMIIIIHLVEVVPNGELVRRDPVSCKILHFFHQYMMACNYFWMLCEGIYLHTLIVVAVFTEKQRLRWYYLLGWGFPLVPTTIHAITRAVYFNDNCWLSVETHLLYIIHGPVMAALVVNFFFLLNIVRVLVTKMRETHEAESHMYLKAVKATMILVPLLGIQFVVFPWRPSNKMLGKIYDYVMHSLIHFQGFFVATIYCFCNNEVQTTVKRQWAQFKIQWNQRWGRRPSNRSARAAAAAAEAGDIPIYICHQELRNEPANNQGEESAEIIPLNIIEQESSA
T1 sequence (looked up) 2: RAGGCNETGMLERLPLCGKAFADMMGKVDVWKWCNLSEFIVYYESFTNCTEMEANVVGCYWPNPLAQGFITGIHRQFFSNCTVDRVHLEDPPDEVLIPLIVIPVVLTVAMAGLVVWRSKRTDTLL

[2] = target: T2, human calcitonin receptor (human, UniProt P30988 25-474); assay: cell-based or functional assay
T2 sequence (looked up): T1 sequence (looked up) 1

- hAmylin-R funct. EC50 [1]: 0.198 nM
- Ratio hCT/hAmylin funct. (hCTR EC50 against hAmylin-R EC50) [2]: 24
- hCTR funct. EC50 [2]: 4.75 nM
B1: N^ε-[(4S)-4-carboxy-4-(19-carboxynonadecanoylamino)butanoyl]Lys[Arg1,Arg17,Pro21,Pro27,His35]-h-amylin (peptide)
peptide: K([γGlu-C20 diacid])RCNTATCATQRLANFLRHSSPNFGAIPSSTNVGSHTY-NH2
modifications: disulfide 3-8; N-terminus assumed
SMILES: CC[C@H](C)[C@H](NC(=O)[C@H](C)NC(=O)CNC(=O)[C@H](Cc1ccccc1)NC(=O)[C@H](CC(N)=O)NC(=O)[C@@H]1CCCN1C(=O)[C@H](CO)NC(=O)[C@H](CO)NC(=O)[C@H](Cc1c[nH]cn1)NC(=O)[C@H](CCCNC(=N)N)NC(=O)[C@H](CC(C)C)NC(=O)[C@H](Cc1ccccc1)NC(=O)[C@H](CC(N)=O)NC(=O)[C@H](C)NC(=O)[C@H](CC(C)C)NC(=O)[C@H](CCCNC(=N)N)NC(=O)[C@H](CCC(N)=O)NC(=O)[C@@H](NC(=O)[C@H](C)NC(=O)[C@@H]1CSSC[C@H](NC(=O)[C@H](CCCNC(=N)N)NC(=O)[C@@H](N)CCCCNC(=O)CC[C@H](NC(=O)CCCCCCCCCCCCCCCCCCC(=O)O)C(=O)O)C(=O)N[C@@H](CC(N)=O)C(=O)N[C@@H]([C@@H](C)O)C(=O)N[C@@H](C)C(=O)N[C@@H]([C@@H](C)O)C(=O)N1)[C@@H](C)O)C(=O)N1CCC[C@H]1C(=O)N[C@@H](CO)C(=O)N[C@@H](CO)C(=O)N[C@H](C(=O)N[C@@H](CC(N)=O)C(=O)N[C@H](C(=O)NCC(=O)N[C@@H](CO)C(=O)N[C@@H](Cc1c[nH]cn1)C(=O)N[C@H](C(=O)N[C@@H](Cc1ccc(O)cc1)C(N)=O)[C@@H](C)O)C(C)C)[C@@H](C)O
notes: also called compound 44

- hAmylin-R funct. EC50 [1]: 0.088 nM
- Ratio hCT/hAmylin funct. (hCTR EC50 against hAmylin-R EC50) [2]: 10.2
- hCTR funct. EC50 [2]: 0.899 nM
B2: N^-1-[(4S)-4-carboxy-4-(19-carboxynonadecanoylamino)butanoyl]-Gly[Arg1,Arg17,Pro21,Pro27]-h-amylin (peptide)
peptide: {C20 diacid-γGlu}-GRCNTATCATQRLANFLRHSSPNFGAIPSSTNVGSNTY-NH2
modifications: disulfide 3-8
SMILES: CC[C@H](C)[C@H](NC(=O)[C@H](C)NC(=O)CNC(=O)[C@H](Cc1ccccc1)NC(=O)[C@H](CC(N)=O)NC(=O)[C@@H]1CCCN1C(=O)[C@H](CO)NC(=O)[C@H](CO)NC(=O)[C@H](Cc1c[nH]cn1)NC(=O)[C@H](CCCNC(=N)N)NC(=O)[C@H](CC(C)C)NC(=O)[C@H](Cc1ccccc1)NC(=O)[C@H](CC(N)=O)NC(=O)[C@H](C)NC(=O)[C@H](CC(C)C)NC(=O)[C@H](CCCNC(=N)N)NC(=O)[C@H](CCC(N)=O)NC(=O)[C@@H](NC(=O)[C@H](C)NC(=O)[C@@H]1CSSC[C@H](NC(=O)[C@H](CCCNC(=N)N)NC(=O)CNC(=O)CC[C@H](NC(=O)CCCCCCCCCCCCCCCCCCC(=O)O)C(=O)O)C(=O)N[C@@H](CC(N)=O)C(=O)N[C@@H]([C@@H](C)O)C(=O)N[C@@H](C)C(=O)N[C@@H]([C@@H](C)O)C(=O)N1)[C@@H](C)O)C(=O)N1CCC[C@H]1C(=O)N[C@@H](CO)C(=O)N[C@@H](CO)C(=O)N[C@H](C(=O)N[C@@H](CC(N)=O)C(=O)N[C@H](C(=O)NCC(=O)N[C@@H](CO)C(=O)N[C@@H](CC(N)=O)C(=O)N[C@H](C(=O)N[C@@H](Cc1ccc(O)cc1)C(N)=O)[C@@H](C)O)C(C)C)[C@@H](C)O
notes: also called compound 46
